Measured values published in IntAct's records for PubMed 24744375.

B1: Disease resistance protein RPS4 (Arabidopsis thaliana (Mouse-ear cress)), Q9XGM3 (parent)
chain: METSSISTVEDKPPQHQVFINFRGADLRRRFVSHLVTALKLNNINVFIDDYEDRGQPLDVLLKRIEESKIVLAIFSGNYTESVWCVRELEKIKDCTDEGTLVAIPIFYKLEPSTVRDLKGKFGDRFRSMAKGDERKKKWKEAFNLIPNIMGIIIDKKSVESEKVNEIVKAVKTALTGIPPEGSHNAVVGALGNSNAGTSSGDKKHETFGNEQRLKDLEEKLDRDKYKGTRIIGVVGMPGIGKTTLLKELYKTWQGKFSRHALIDQIRVKSKHLELDRLPQMLLGELSKLNHPHVDNLKDPYSQLHERKVLVVLDDVSKREQIDALREILDWIKEGKEGSRVVIATSDMSLTNGLVDDTYMVQNLNHRDSLQLFHYHAFIDDQANPQKKDFMKLSEGFVHYARGHPLALKVLGGELNKKSMDHWNSKMKKLAQSPSPNIVSVFQVSYDELTTAQKDAFLDIACFRSQDKDYVESLLASSDLGSAEAMSAVKSLTDKFLINTCDGRVEMHDLLYKFSREVDLKASNQDGSRQRRLWLHQHIIKGGIINVLQNKMKAANVRGIFLDLSEVEDETSLDRDHFINMGNLRYLKFYNSHCPQECKTNNKINIPDKLKLPLKEVRCLHWLKFPLETLPNDFNPINLVDLKLPYSEMEQLWEGDKDTPCLRWVDLNHSSKLCSLSGLSKAEKLQRLNLEGCTTLKAFPHDMKKMKMLAFLNLKGCTSLESLPEMNLISLKTLTLSGCSTFKEFPLISDNIETLYLDGTAISQLPMNMEKLQRLVVLNMKDCKMLEEIPGRVGELKALQELILSDCLNLKIFPEIDISFLNILLLDGTAIEVMPQLPSVQYLCLSRNAKISCLPVGISQLSQLKWLDLKYCTSLTSVPEFPPNLQCLDAHGCSSLKTVSKPLARIMPTEQNHSTFIFTNCENLEQAAKEEITSYAQRKCQLLSYARKRYNGGLVSESLFSTCFPGCEVPSWFCHETVGSELEVKLLPHWHDKKLAGIALCAVVSCLDPQDQVSRLSVTCTFKVKDEDKSWVAYTCPVGSWTRHGGGKDKIELDHVFIGYTSCPHTIKCHEEGNSDECNPTEASLKFTVTGGTSENGKYKVLKCGLSLVYAKDKDKNSALETKYDMLIGKSFQETSEGVDGRVKKTKGKYVMPVEKNFQETTEGVDGRVNKKKKTRMDNGRPKKKQRSGRDDNQTRMQVELQEGNINSVIMHTVKNF
partner: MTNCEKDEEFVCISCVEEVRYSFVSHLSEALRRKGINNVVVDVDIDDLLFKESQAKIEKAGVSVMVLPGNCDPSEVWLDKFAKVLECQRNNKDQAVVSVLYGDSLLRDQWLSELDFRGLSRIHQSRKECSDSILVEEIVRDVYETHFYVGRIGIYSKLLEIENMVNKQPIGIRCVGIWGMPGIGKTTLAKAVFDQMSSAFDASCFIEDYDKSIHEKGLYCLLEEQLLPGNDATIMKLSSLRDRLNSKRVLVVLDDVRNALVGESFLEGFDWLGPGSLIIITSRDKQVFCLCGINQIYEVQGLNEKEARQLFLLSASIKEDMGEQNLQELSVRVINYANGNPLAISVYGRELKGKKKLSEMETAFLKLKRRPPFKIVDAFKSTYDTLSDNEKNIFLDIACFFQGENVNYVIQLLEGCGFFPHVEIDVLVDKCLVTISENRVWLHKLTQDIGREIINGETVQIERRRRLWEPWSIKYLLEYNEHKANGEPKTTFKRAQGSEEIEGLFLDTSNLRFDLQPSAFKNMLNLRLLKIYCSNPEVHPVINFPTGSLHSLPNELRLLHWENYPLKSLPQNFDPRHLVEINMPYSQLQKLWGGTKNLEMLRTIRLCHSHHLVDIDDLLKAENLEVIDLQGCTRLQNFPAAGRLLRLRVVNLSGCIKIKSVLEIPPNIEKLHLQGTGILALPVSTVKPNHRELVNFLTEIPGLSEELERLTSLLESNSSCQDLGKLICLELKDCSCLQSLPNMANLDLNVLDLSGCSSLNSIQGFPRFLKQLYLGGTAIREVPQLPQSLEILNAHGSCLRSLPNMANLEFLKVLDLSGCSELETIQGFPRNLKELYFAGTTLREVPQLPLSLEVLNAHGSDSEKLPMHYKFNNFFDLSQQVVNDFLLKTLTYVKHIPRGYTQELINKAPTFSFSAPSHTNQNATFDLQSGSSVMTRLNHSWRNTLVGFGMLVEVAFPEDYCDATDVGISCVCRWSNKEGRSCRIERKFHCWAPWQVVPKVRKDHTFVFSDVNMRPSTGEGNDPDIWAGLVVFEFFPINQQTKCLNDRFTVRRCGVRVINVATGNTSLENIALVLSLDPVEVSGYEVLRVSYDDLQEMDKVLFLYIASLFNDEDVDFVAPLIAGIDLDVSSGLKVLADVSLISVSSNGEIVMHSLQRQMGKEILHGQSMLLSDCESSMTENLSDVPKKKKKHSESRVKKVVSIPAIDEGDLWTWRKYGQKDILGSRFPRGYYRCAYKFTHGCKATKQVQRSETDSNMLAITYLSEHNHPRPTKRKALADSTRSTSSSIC
B2: Disease resistance protein RRS1 (Arabidopsis thaliana (Mouse-ear cress)), P0DKH5 (parent)
chain: B1 partner
partner: B1 chain

Variants of: B1
Conditions: with wrk52_arath RRS1, P0DKH5

Effect of a mutation on the interaction, disrupting interaction strength:
S33A;H34A
K157A
R29A
S33A
E160A
R30A
R30E

Variants of: B1
Conditions: with wrk52_arath RRS1, P0DKH5
Remark: another data set of the same source

Effect of a mutation on the interaction, disrupting interaction strength:
H34A

Variants of: B2
Conditions: with rps4_arath RPS4, Q9XGM3

Effect of a mutation on the interaction, disrupting interaction strength:
Y101A
E128A
S25A
S25A;H26A
D131A
R20A
D103A
D103R

Variants of: B2
Conditions: with rps4_arath RPS4, Q9XGM3
Remark: another data set of the same source

Effect of a mutation on the interaction, disrupting interaction strength:
H26A
